{"source": "the nanobody polyreactivity screen of Harvey et al. (2022)", "data": [{"assay": "yeast display, Sf9 membrane polyspecificity reagent, FACS + sequencing; frameworks hold sequencing errors", "outline": "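Using colony PCR, genes from sorted yeast display clones were amplified, then sequenced on MiSeq at 2 × 250 and filtered by CDR length. The clones had been stained with 10% biotinylated, detergent-solubilized Sf9 membrane reagent for 1 hour at 4 °C and sorted by FACS into low and high (top ~1%) gates on anti-HA and streptavidin fluorescence. Polyreactivity labels come from the gate of origin.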", "values": [{"sequence": "QVQLVESGGGLVQAGGSLRLICAASGYTFYYAMGWYRQAPGKERELVAAISAGGGRTYYADSVKGRFTISRDNAKITVYLQMNSLKPEDTAVYYCNRVYRLTAYGYDYWGQGTQVTVSS", "polyreactivity (PSR sort gate)": "high polyreactivity"}, {"sequence": "QVQLVESGGGLVQAGGSLRLICAATGFTFHNNVMGWYRQAPGKERELVATISKSGGSTYYADSVKGRFTISRDNAKNTVYLQMNRLKPEDTAVYYCARRYRDYGRYGYWGQGTQVTVSS", "polyreactivity (PSR sort gate)": "high polyreactivity"}, {"sequence": "QVQLVESGGGLVQAGGSLRLICAGSGSTFPTYAMGWYRQAPGKERELVAAITSGSGTNTYYADSVKGRFTISRDNAKNTVYLQMNSLKPEDTAVYYCAASGGKNGMNYWGQGTQVTVSS", "polyreactivity (PSR sort gate)": "high polyreactivity"}, {"sequence": "QVQLVESGGGLVQAGGSLRLICAPSGITFYPYSMGWSRQAPGKERELVAAISGGTNTHYADSVKGRFTISRDNAKNTDYLQMNSLKPVDTAVYYCAAGIDFRRTTSYSFWFDYWGQGTQVTVSS", "polyreactivity (PSR sort gate)": "high polyreactivity"}, {"sequence": "QVQLVESGGGLVQAGGSLRLICASSGRIFSPYVMGWYRQAPGKERELVARISWTGSSTYYADSVKGRFTISRDNAKNTVYLQMNSLKPEDTAVYYCAKRLTRFYTRLEYWGLGTQVTVSS", "polyreactivity (PSR sort gate)": "low polyreactivity"}, {"sequence": "QVQLVESGGGLVQAGGSLRLICDASGRTFPPYAMGWYRQAPGKERELVAAISRRAGTTYYADSVKGRFTISRDNAKNTDYLQMNSLKPEDTAVYYCAADTPVWSGYWYDYWGQGTQVTVSS", "polyreactivity (PSR sort gate)": "low polyreactivity"}, {"sequence": "QVQLVESGGGLVQAGGSLRLICPASGSTFQYYAMGWYRQAPGKEREFVAAIRSSGGTTYYADSVKGRFTISRDNAKKTVYLQMNSLKPEDTAVYYCATVVNYPSARYCYWGQGTKVTVSS", "polyreactivity (PSR sort gate)": "high polyreactivity"}, {"sequence": "QVQLVESGGGLVQAGGSLRLICSASGSTFNLYAMGWYRQAPWTERELVAAISYRGGTTYYADSVKGRFTISRDNAKHTVYLQMNSLKREDTAVYYCSAGWRPRSLRDASKYDFWGQGTQVTVSS", "polyreactivity (PSR sort gate)": "low polyreactivity"}, {"sequence": "QVQLVESGGGLVQAGGSLRLNCAASGITFGYNAMGWYRQPPGKERELVAAISSRGGSTYYADSVKGRFTISRDNAKNTVYLQMNSMKPEDTAVYYCAKDGGPGRYAWYWPVRMGYWGQGTQVTVSS", "polyreactivity (PSR sort gate)": "high polyreactivity"}, {"sequence": "QVQLVESGGGLVQAGGSLRLNCAASGITIRRYAMGCYRQAPGNERELVAAITTGGGGTYYADSVKGRFTISRDNAMNTVYLQMNSLKPEDTAVYYCAATYWRTYPSYYWGQGTQVTVSS", "polyreactivity (PSR sort gate)": "high polyreactivity"}, {"sequence": "QVQLVESGGGLVQAGGSLRLNCAASGNIFISYAMGWYRQAPGKERELVAAISRSGGSTYYADSVKGRFTISRDYAKNTVYLQMNSLKPEDTAVYYCAAYIGPGRYGSWGQGTQVTVSS", "polyreactivity (PSR sort gate)": "high polyreactivity"}, {"sequence": "QVQLVESGGGLVQAGGSLRLNCAASGSIFGQYTMGWYRQAPGKERELVADITSGGSTYYADSVKGRFTISRDNAKNTVYLQMNSLKPEDPAVYYCAAVDWKAHWEMGYWGQGTQVTVSS", "polyreactivity (PSR sort gate)": "low polyreactivity"}, {"sequence": "QVQLVESGGGLVQAGGSLRLNCAASGSILYLNAMGWYRQAPGKERELLAAITWSGGSTSYADSVKGRFTISRDYAKNTVSLQMNSLKPEDTAVYYCSAVRRGYGGVYYAGGYWGQGTQVTVSW", "polyreactivity (PSR sort gate)": "low polyreactivity"}, {"sequence": "QVQLVESGGGLVQAGGSLRLNCAASGSTFNRNAMGWYRQAPGKERELVATISSGGSTNYADSVKGRFTITRDNAKNTVYLLMISLYPEDTWVYYCAKRSLYRYYYWGQGSQVTVSS", "polyreactivity (PSR sort gate)": "high polyreactivity"}, {"sequence": "QVQLVESGGGLVQAGGSLRLNSAASGIIFPRYAMGWYSQAPGKEWEVVAGFTSSGGTYYADSVKGRFTISRDHAKNTVYLQMNSLIPEDTAVYYCAARQGNLRRGVRWFNYWGQGTQVTVSS", "polyreactivity (PSR sort gate)": "high polyreactivity"}, {"sequence": "QVQLVESGGGLVQAGGSLRLRCAASGFIFSAYAMGWYSQAPGKERELVAGITKSVGRTTYADSVKGRFTIARDNAKNTVYLQMNSLKPEDTAVYYCNARRSYTYRIFGMDYWGQGTQVTVSS", "polyreactivity (PSR sort gate)": "high polyreactivity"}, {"sequence": "QVQLVESGGGLVQAGGSLRLRCAASGFNFSFDNAMGWYRQAPGKERELVAAISSGTTTHYADSVKGRFTISRDNAKNTVYLQMNSLKPEDTAVYYCAADTAQQSGYEYDYWGQGTQVTVSS", "polyreactivity (PSR sort gate)": "low polyreactivity"}, {"sequence": "QVQLVESGGGLVQAGGSLRLRCAASGFNSVRNAMGWYRPAPGKEREFVAAISGGGGSTYYADSVKGRFTISRDNAMNTVYLQMNSLKPEDTAVYYCAPRSYWGQGTQVTVSS", "polyreactivity (PSR sort gate)": "high polyreactivity"}, {"sequence": "QVQLVESGGGLVQAGGSLRLRCAASGIIFPYYTMGGYRQAPGKERELVARITNGGRTYYADSVKGRFTISRDNAKNTVYLQMNSLKPEYTAVYYCIAGRYYIGGYWGQGTQVTVSS", "polyreactivity (PSR sort gate)": "high polyreactivity"}, {"sequence": "QVQLVESGGGLVQAGGSLRLRCAASGIIFSPYDMGWSIQAPGKVRELVAAITTGDSTNYADSVKGRFTMSRDNAKTTVYFPMNSLKPEDTAVDYCNATDTYVFFLYLEFDYWGQGTQVTVSS", "polyreactivity (PSR sort gate)": "low polyreactivity"}, {"sequence": "QVQLVESGGGLVQAGGSLRLRCAASGIIFTGYALGWYRQAPGKESELVAAISRSGGGTYYADSVKARFTISRDNAKNTVYLQINSLKPEDTAVYYCNRLRIAASYWQAYDYWGQGTQVTLSS", "polyreactivity (PSR sort gate)": "high polyreactivity"}, {"sequence": "QVQLVESGGGLVQAGGSLRLRCAASGIIQQSYALGWSRQAPGKERELVAAIRGSDGSTYYADSVKGRFTISRDNAKNTVYLQMNSLKPEDTAVYYCNADTRTWPLDYWGQGTQVTVSS", "polyreactivity (PSR sort gate)": "low polyreactivity"}, {"sequence": "QVQLVESGGGLVQAGGSLRLRCAASGNIFLSYAMGWYRQAPGKERELVAGISASGGRTYYADSVKGRFTISRDNAKNTVYLQMNSLKPEDTAVYYCATRGQTRTTTRYYSWGQGTQVTVSS", "polyreactivity (PSR sort gate)": "high polyreactivity"}, {"sequence": "QVQLVESGGGLVQAGGSLRLRCAASGRIFARNAMGWYRQAPGKERELVAAISSRGSSTYYADSVKGRFTISRDNAKNTVYLQMNSLKPEDTAVYYCNAYYSVYPPGYDYWGQGTQVTVSS", "polyreactivity (PSR sort gate)": "high polyreactivity"}, {"sequence": "QVQLVESGGGLVQAGGSLRLRCAASGRIFDANAMGWYRQAPGKERELVAAITSRGGTTFYADSVKGRFTISRDNEKNTDYLQMNSLKPEDTAVYYCAADRYYFYRRYDYWGQGTQVTVSS", "polyreactivity (PSR sort gate)": "high polyreactivity"}, {"sequence": "QVQLVESGGGLVQAGGSLRLRCAASGRIFGRNAMGWYRQAPGKERELVAAISGGGSTNYADSVKGRFTISRDNAKNTVYLQMKSLKPADTAVYYCAVKQGFYSRALKLYYWGQGTQVTVSS", "polyreactivity (PSR sort gate)": "high polyreactivity"}, {"sequence": "QVQLVESGGGLVQAGGSLRLRCAASGRIFLPYAMGWYRQAPGKERELVAGISSRGSTKYADSVKGRFTISRDNAKNTVYLQMNTLKPEETAVYYCNKVKKSDKFNNFSNDYWGQGTQVTVSS", "polyreactivity (PSR sort gate)": "high polyreactivity"}, {"sequence": "QVQLVESGGGLVQAGGSLRLRCAASGRIFRKYAMGWYRQAPGKERELVAAITSGGSTYYADSVKGRFTISRDNAKNTVYLQMNSLKPEDTAVYYCAAFYRGGDYWGQGTQVTVSS", "polyreactivity (PSR sort gate)": "high polyreactivity"}, {"sequence": "QVQLVESGGGLVQAGGSLRLRCAASGRIFRPYTMGWYRQAPGKERELVAAITSGSSTNYADSVKGRFTISRDNAKNTVYLQMNSLKPEDTAVYYCAVKVRIFASYYPFYYWGQGTQVTVSS", "polyreactivity (PSR sort gate)": "high polyreactivity"}, {"sequence": "QVQLVESGGGLVQAGGSLRLRCAASGRIFVYNAMGWYRQAPGKERELVAAISRSGSSTYYADSVKGRFTISRDNAKNTVYLQMYSLKPEDTSVYYCAARTFSIAYYKYGYWGQGTHVTVSS", "polyreactivity (PSR sort gate)": "high polyreactivity"}, {"sequence": "QVQLVESGGGLVQAGGSLRLRCAASGRTFAVYAMGWYRQAPGKERELVAAITLGASRSYYADSVKGRFTISRDNAKNTVYLHMNSLKPEDTAVYYCNAVGRRNVVSSLNDYWGQGTQVTVSS", "polyreactivity (PSR sort gate)": "low polyreactivity"}, {"sequence": "QVQLVESGGGLVQAGGSLRLRCAASGRTFCWYAMGWYRQAPGKERELVADITYSGGNTYYADSVKGRFTITRDNAKNTVYLQMNSLKPEDTAVYYCAAERKNKYDYWGQGTQVTVTS", "polyreactivity (PSR sort gate)": "high polyreactivity"}]}]}
